Columns and labels:
[1] = substrate: NCC[C@@H](N)C(=O)O; test: initial-velocity racemase assay, FDLA (Marfey) LC-MS; Lineweaver-Burk; type: biochemical, Streptoalloteichus hindustanus; conditions: D to L direction, no cofactor, 100 mM TAPS-NaOH pH 8.5, 30°C
From the text: (§1) initial-velocity racemase assay, FDLA (Marfey) LC-MS; Lineweaver-Burk on PddB

[2] = substrate: NCC[C@H](N)C(=O)O; test: as above; type: biochemical, Streptoalloteichus hindustanus; conditions: L to D direction, no cofactor, 100 mM TAPS-NaOH pH 8.5, 30°C
From the text: as §1

B1: PddB (Streptoalloteichus hindustanus) (protein)
chain: MSDQHNQVLDSELTAFRERVVEGVRFDTLRFCIMHGDGNVIMIVDERLSGLAAESVTSTLARELCQSFTVPKVDGVAFVRPTVSPLRMTYFERDGTHAQMCGNALRCLTRYGVERGYLSTEDSVETDDGVKRVSFVDGEARAALGPGREYQQVRDNWYFAFSGLPHLVVVMDDLDAFNAVNVRVDGAKLAHDEELCRQLNHPEGLHVNYLHRGEDHIAIRTFEVGVEDETKACGTGVAATGYIAHRAWGMPYPLRVRVPGGVMTAEDGEHGLTISGVTGYLFTEDETPVANVFQRSVL
notes: full length, C-terminal His6 tag, pET-21b(+), E. coli Rosetta 2 (DE3), Ni-NTA; 33 kDa; monomer; C-terminal domain given as 163-295
[1]
  Km: 6.1 ± 1.0 mM
  Vmax: 136 µmol/min/mg
  Vmax/Km: 22200 µL/min/mg
  kcat: 75 ± 5 s⁻¹
  kcat/Km: 12200 M⁻¹ s⁻¹
[2]
  Km: 10.1 ± 1.9 mM
  Vmax: 210 µmol/min/mg
  Vmax/Km: 20800 µL/min/mg
  kcat: 116 ± 12 s⁻¹
  kcat/Km: 11400 M⁻¹ s⁻¹

Source: PMC8225329, “Molecular and Mechanistic Characterization of PddB, the First PLP-Independent 2,4-Diaminobutyric Acid Racemase Discovered in an Actinobacterial D-Amino Acid Homopolymer Biosynthesis” (Frontiers in Microbiology, 2021)
